# From patent US20210139548A1 (published 2021)
# *1 amine or outer side, *2 acyl side, *3 side chain or, on linkers, in order; H or OH if unused. Side-chain parts run from the residue outwards. The star is where a group is joined. C18 diacid = O=C(O)CCCCCCCCCCCCCCCCC(=O)*; γGlu = O=C(O)[C@H](CCC(=O)[*:2])N[*:1]; Isovaleryl = CC(C)CC(=O)*; AEEA = NCCOCCOCC(=O)O
# T1: human neuropeptide Y2 receptor (human, UniProt P49146 1-381)
# T1 construct: whole, on cells; also called hNPY2 receptor; hNPY2-R
# T1 sequence (looked up): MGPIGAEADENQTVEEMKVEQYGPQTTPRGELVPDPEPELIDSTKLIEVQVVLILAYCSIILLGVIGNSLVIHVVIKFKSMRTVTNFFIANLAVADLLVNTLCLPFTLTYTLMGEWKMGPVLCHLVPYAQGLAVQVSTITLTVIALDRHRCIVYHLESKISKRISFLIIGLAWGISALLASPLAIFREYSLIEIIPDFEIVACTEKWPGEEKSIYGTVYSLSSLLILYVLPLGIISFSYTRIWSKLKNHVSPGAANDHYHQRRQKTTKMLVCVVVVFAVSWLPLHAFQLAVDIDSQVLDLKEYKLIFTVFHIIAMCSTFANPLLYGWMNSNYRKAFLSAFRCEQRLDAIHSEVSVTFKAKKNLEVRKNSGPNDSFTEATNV
# Target: T1, human neuropeptide Y2 receptor
# Assay: radioligand competition (125I-PYY(1-36)), hNPY2R membranes
# In short: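 Commercial human Y2 receptor membranes (0.5 μg protein/well) were incubated with peptide for 2 h at room temperature in 50 mM HEPES, 5 mM MgCl₂, 1 mM CaCl₂, pH 7.4, with 0.2% ovalbumin. Bound radioligand was separated on PEI-soaked GF/C filters and counted by scintillation, and IC₅₀ came from nonlinear sigmoidal regression.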
row,Binder,Ki [nM]
1,Isovaleryl-APEK([AEEA-AEEA-γGlu-C18 diacid])PEEAASPEELQRYYVSLRHYYNWLTRQRY-NH2 (SMILES CC(C)CC(=O)N[C@@H](C)C(=O)N1CCC[C@H]1C(=O)N[C@@H](CCC(=O)O)C(=O)N[C@@H](CCCCNC(=O)COCCOCCNC(=O)COCCOCCNC(=O)CC[C@H](NC(=O)CCCCCCCCCCCCCCCCC(=O)O)C(=O)O)C(=O)N1CCC[C@H]1C(=O)N[C@@H](CCC(=O)O)C(=O)N[C@@H](CCC(=O)O)C(=O)N[C@@H](C)C(=O)N[C@@H](C)C(=O)N[C@@H](CO)C(=O)N1CCC[C@H]1C(=O)N[C@@H](CCC(=O)O)C(=O)N[C@@H](CCC(=O)O)C(=O)N[C@@H](CC(C)C)C(=O)N[C@@H](CCC(N)=O)C(=O)N[C@@H](CCCNC(=N)N)C(=O)N[C@@H](Cc1ccc(O)cc1)C(=O)N[C@@H](Cc1ccc(O)cc1)C(=O)N[C@H](C(=O)N[C@@H](CO)C(=O)N[C@@H](CC(C)C)C(=O)N[C@@H](CCCNC(=N)N)C(=O)N[C@@H](Cc1c[nH]cn1)C(=O)N[C@@H](Cc1ccc(O)cc1)C(=O)N[C@@H](Cc1ccc(O)cc1)C(=O)N[C@@H](CC(N)=O)C(=O)N[C@@H](Cc1c[nH]c2ccccc12)C(=O)N[C@@H](CC(C)C)C(=O)N[C@H](C(=O)N[C@@H](CCCNC(=N)N)C(=O)N[C@@H](CCC(N)=O)C(=O)N[C@@H](CCCNC(=N)N)C(=O)N[C@@H](Cc1ccc(O)cc1)C(N)=O)[C@@H](C)O)C(C)C) [Compound 109],0.94
2,Isovaleryl-APEK([AEEA-AEEA-γGlu-C18 diacid])PEEDAEPEEIQRYYVSLRHYYNWLTRQRY-NH2 (SMILES CC[C@H](C)[C@H](NC(=O)[C@H](CCC(=O)O)NC(=O)[C@H](CCC(=O)O)NC(=O)[C@@H]1CCCN1C(=O)[C@H](CCC(=O)O)NC(=O)[C@H](C)NC(=O)[C@H](CC(=O)O)NC(=O)[C@H](CCC(=O)O)NC(=O)[C@H](CCC(=O)O)NC(=O)[C@@H]1CCCN1C(=O)[C@H](CCCCNC(=O)COCCOCCNC(=O)COCCOCCNC(=O)CC[C@H](NC(=O)CCCCCCCCCCCCCCCCC(=O)O)C(=O)O)NC(=O)[C@H](CCC(=O)O)NC(=O)[C@@H]1CCCN1C(=O)[C@H](C)NC(=O)CC(C)C)C(=O)N[C@@H](CCC(N)=O)C(=O)N[C@@H](CCCNC(=N)N)C(=O)N[C@@H](Cc1ccc(O)cc1)C(=O)N[C@@H](Cc1ccc(O)cc1)C(=O)N[C@H](C(=O)N[C@@H](CO)C(=O)N[C@@H](CC(C)C)C(=O)N[C@@H](CCCNC(=N)N)C(=O)N[C@@H](Cc1c[nH]cn1)C(=O)N[C@@H](Cc1ccc(O)cc1)C(=O)N[C@@H](Cc1ccc(O)cc1)C(=O)N[C@@H](CC(N)=O)C(=O)N[C@@H](Cc1c[nH]c2ccccc12)C(=O)N[C@@H](CC(C)C)C(=O)N[C@H](C(=O)N[C@@H](CCCNC(=N)N)C(=O)N[C@@H](CCC(N)=O)C(=O)N[C@@H](CCCNC(=N)N)C(=O)N[C@@H](Cc1ccc(O)cc1)C(N)=O)[C@@H](C)O)C(C)C) [Compound 110],0.77
3,Isovaleryl-APEK([AEEA-AEEA-γGlu-C18 diacid])PEEDAEPEELQRYYVELRHYYNWLTRQRY-NH2 (SMILES CC(C)CC(=O)N[C@@H](C)C(=O)N1CCC[C@H]1C(=O)N[C@@H](CCC(=O)O)C(=O)N[C@@H](CCCCNC(=O)COCCOCCNC(=O)COCCOCCNC(=O)CC[C@H](NC(=O)CCCCCCCCCCCCCCCCC(=O)O)C(=O)O)C(=O)N1CCC[C@H]1C(=O)N[C@@H](CCC(=O)O)C(=O)N[C@@H](CCC(=O)O)C(=O)N[C@@H](CC(=O)O)C(=O)N[C@@H](C)C(=O)N[C@@H](CCC(=O)O)C(=O)N1CCC[C@H]1C(=O)N[C@@H](CCC(=O)O)C(=O)N[C@@H](CCC(=O)O)C(=O)N[C@@H](CC(C)C)C(=O)N[C@@H](CCC(N)=O)C(=O)N[C@@H](CCCNC(=N)N)C(=O)N[C@@H](Cc1ccc(O)cc1)C(=O)N[C@@H](Cc1ccc(O)cc1)C(=O)N[C@H](C(=O)N[C@@H](CCC(=O)O)C(=O)N[C@@H](CC(C)C)C(=O)N[C@@H](CCCNC(=N)N)C(=O)N[C@@H](Cc1c[nH]cn1)C(=O)N[C@@H](Cc1ccc(O)cc1)C(=O)N[C@@H](Cc1ccc(O)cc1)C(=O)N[C@@H](CC(N)=O)C(=O)N[C@@H](Cc1c[nH]c2ccccc12)C(=O)N[C@@H](CC(C)C)C(=O)N[C@H](C(=O)N[C@@H](CCCNC(=N)N)C(=O)N[C@@H](CCC(N)=O)C(=O)N[C@@H](CCCNC(=N)N)C(=O)N[C@@H](Cc1ccc(O)cc1)C(N)=O)[C@@H](C)O)C(C)C) [Compound 111],5.43
4,Isovaleryl-APEK([AEEA-AEEA-γGlu-C18 diacid])PEEEASPEALQRYYVSLRHYYNWLTRQRY-NH2 (SMILES CC(C)CC(=O)N[C@@H](C)C(=O)N1CCC[C@H]1C(=O)N[C@@H](CCC(=O)O)C(=O)N[C@@H](CCCCNC(=O)COCCOCCNC(=O)COCCOCCNC(=O)CC[C@H](NC(=O)CCCCCCCCCCCCCCCCC(=O)O)C(=O)O)C(=O)N1CCC[C@H]1C(=O)N[C@@H](CCC(=O)O)C(=O)N[C@@H](CCC(=O)O)C(=O)N[C@@H](CCC(=O)O)C(=O)N[C@@H](C)C(=O)N[C@@H](CO)C(=O)N1CCC[C@H]1C(=O)N[C@@H](CCC(=O)O)C(=O)N[C@@H](C)C(=O)N[C@@H](CC(C)C)C(=O)N[C@@H](CCC(N)=O)C(=O)N[C@@H](CCCNC(=N)N)C(=O)N[C@@H](Cc1ccc(O)cc1)C(=O)N[C@@H](Cc1ccc(O)cc1)C(=O)N[C@H](C(=O)N[C@@H](CO)C(=O)N[C@@H](CC(C)C)C(=O)N[C@@H](CCCNC(=N)N)C(=O)N[C@@H](Cc1c[nH]cn1)C(=O)N[C@@H](Cc1ccc(O)cc1)C(=O)N[C@@H](Cc1ccc(O)cc1)C(=O)N[C@@H](CC(N)=O)C(=O)N[C@@H](Cc1c[nH]c2ccccc12)C(=O)N[C@@H](CC(C)C)C(=O)N[C@H](C(=O)N[C@@H](CCCNC(=N)N)C(=O)N[C@@H](CCC(N)=O)C(=O)N[C@@H](CCCNC(=N)N)C(=O)N[C@@H](Cc1ccc(O)cc1)C(N)=O)[C@@H](C)O)C(C)C) [Compound 115],1.94
5,Isovaleryl-APEK([AEEA-AEEA-γGlu-C18 diacid])PEEEASPEELQRYYVTLRHYYNWLTRQRY-NH2 (SMILES CC(C)CC(=O)N[C@@H](C)C(=O)N1CCC[C@H]1C(=O)N[C@@H](CCC(=O)O)C(=O)N[C@@H](CCCCNC(=O)COCCOCCNC(=O)COCCOCCNC(=O)CC[C@H](NC(=O)CCCCCCCCCCCCCCCCC(=O)O)C(=O)O)C(=O)N1CCC[C@H]1C(=O)N[C@@H](CCC(=O)O)C(=O)N[C@@H](CCC(=O)O)C(=O)N[C@@H](CCC(=O)O)C(=O)N[C@@H](C)C(=O)N[C@@H](CO)C(=O)N1CCC[C@H]1C(=O)N[C@@H](CCC(=O)O)C(=O)N[C@@H](CCC(=O)O)C(=O)N[C@@H](CC(C)C)C(=O)N[C@@H](CCC(N)=O)C(=O)N[C@@H](CCCNC(=N)N)C(=O)N[C@@H](Cc1ccc(O)cc1)C(=O)N[C@@H](Cc1ccc(O)cc1)C(=O)N[C@H](C(=O)N[C@H](C(=O)N[C@@H](CC(C)C)C(=O)N[C@@H](CCCNC(=N)N)C(=O)N[C@@H](Cc1c[nH]cn1)C(=O)N[C@@H](Cc1ccc(O)cc1)C(=O)N[C@@H](Cc1ccc(O)cc1)C(=O)N[C@@H](CC(N)=O)C(=O)N[C@@H](Cc1c[nH]c2ccccc12)C(=O)N[C@@H](CC(C)C)C(=O)N[C@H](C(=O)N[C@@H](CCCNC(=N)N)C(=O)N[C@@H](CCC(N)=O)C(=O)N[C@@H](CCCNC(=N)N)C(=O)N[C@@H](Cc1ccc(O)cc1)C(N)=O)[C@@H](C)O)[C@@H](C)O)C(C)C) [Compound 119],3.32
